For one molecule, stoichiometry (Fab per trimer) results are on record in patent USRE50268.

The target of this test is BG505 SOSIP.664 gp140 trimer (HIV-1 isolate BG505). Nature of the test: single-particle negative-stain electron microscopy.

B1: PGDM1400 Fab (Fab, V domains shown)
VH: QVHLTQSGPEVRKPGTSVKVSCKAPGNTLKTYDLHWVRSVPGQGLQWMGWISHEGDKKVIVERFKAKVTIDWDRSTNTAYLQLSGLTSGDTAVYYCAKGSKHRLRDYALYDDDGALNWAVDVDYLSNLEFWGQGTAVTVSS
VL: DFVLTQSPHSLSVTPGESASISCKSSHSLIHGDRNNYLAWYVQKPGRSPQLLIYLASSRASGVPDRFSGSGSDKDFTLKISRVETEDVGTYYCMQGRESPWTFGQGTKVDIK
modifications: sulfated tyrosine at position 100F (Tys100F), seen in the electron density map of the Fab crystal structure
On to B1, for which the stoichiometry (Fab per trimer) was found to be 1.
